According to paper PMC9992269 (Molecular cell, 2023):

T1: Npl4 (wild type, purified without Ufd1) (UniProt P33755 1-580)
T1 sequence (looked up): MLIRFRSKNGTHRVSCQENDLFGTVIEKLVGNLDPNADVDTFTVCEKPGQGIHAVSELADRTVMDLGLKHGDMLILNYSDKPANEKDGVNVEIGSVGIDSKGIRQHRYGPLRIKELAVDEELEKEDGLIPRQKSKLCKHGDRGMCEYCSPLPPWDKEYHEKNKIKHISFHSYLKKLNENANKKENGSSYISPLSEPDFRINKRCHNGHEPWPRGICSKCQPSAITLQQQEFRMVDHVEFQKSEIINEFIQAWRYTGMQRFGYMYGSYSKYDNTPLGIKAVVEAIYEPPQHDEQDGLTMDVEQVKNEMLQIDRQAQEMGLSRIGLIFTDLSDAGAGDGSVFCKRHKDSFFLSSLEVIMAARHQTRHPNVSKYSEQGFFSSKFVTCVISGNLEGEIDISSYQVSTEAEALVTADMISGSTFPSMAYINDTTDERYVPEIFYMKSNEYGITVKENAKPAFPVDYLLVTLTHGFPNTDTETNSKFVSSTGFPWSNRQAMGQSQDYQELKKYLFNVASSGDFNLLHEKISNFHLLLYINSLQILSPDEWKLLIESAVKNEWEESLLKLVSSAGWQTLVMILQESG

T2: Ufd1/Npl4 heterodimer (wild type) (UniProt P53044 1-361; P33755 1-580)
T2 sequence (looked up) 1: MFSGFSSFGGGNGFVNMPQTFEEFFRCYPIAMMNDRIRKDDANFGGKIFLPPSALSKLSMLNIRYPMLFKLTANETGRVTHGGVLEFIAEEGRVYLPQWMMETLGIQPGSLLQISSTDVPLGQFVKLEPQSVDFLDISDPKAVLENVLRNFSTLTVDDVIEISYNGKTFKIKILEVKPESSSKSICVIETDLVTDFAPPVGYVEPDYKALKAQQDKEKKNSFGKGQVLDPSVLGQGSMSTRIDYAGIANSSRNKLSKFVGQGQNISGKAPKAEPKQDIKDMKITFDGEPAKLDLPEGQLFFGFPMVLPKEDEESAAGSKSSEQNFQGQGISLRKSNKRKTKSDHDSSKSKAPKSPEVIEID
T2 sequence (looked up) 2: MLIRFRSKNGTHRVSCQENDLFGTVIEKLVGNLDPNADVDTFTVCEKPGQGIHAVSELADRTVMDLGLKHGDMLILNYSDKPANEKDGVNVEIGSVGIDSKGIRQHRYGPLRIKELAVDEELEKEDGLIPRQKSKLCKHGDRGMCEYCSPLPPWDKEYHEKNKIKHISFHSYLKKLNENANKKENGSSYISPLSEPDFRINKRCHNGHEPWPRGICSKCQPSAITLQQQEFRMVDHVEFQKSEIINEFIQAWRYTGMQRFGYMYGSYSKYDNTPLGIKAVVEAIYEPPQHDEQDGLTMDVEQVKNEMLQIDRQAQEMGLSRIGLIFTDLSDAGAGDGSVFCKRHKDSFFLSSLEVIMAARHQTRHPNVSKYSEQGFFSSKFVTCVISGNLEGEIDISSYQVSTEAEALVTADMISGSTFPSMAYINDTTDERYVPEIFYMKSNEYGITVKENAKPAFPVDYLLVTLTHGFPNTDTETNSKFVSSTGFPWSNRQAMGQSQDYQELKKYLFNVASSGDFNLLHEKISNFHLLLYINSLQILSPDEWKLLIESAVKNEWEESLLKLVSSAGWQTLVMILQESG

T3: Ufd1^L55R/Npl4 (UniProt P53044 1-361; P33755 1-580, L55R)
T3 sequence (looked up) 1: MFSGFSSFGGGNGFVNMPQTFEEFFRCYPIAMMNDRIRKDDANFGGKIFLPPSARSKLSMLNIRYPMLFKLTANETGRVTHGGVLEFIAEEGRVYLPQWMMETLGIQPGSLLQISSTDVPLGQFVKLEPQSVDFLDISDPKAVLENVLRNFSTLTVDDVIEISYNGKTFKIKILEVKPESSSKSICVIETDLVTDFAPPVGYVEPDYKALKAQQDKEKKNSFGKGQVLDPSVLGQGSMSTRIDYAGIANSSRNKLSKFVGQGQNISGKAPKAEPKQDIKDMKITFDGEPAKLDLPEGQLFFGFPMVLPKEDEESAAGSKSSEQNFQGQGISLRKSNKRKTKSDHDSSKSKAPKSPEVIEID
T3 sequence (looked up) 2: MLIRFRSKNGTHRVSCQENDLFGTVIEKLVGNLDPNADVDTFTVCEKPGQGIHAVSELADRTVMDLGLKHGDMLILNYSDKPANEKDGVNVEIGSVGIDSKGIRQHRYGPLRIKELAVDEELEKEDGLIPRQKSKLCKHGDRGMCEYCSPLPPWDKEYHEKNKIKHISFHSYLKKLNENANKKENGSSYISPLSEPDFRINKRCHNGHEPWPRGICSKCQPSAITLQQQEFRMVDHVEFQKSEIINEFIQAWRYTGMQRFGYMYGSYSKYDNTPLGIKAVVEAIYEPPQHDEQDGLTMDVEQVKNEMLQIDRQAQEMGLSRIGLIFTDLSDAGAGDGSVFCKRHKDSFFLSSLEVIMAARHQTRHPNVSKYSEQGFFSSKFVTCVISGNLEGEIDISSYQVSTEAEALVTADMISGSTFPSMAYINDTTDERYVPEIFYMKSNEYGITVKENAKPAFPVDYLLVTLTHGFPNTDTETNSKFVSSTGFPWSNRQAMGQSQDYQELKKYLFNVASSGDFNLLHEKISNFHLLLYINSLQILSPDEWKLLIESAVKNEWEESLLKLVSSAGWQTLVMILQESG

B1: Ufd1 (wild type, purified without Npl4) (natural protein, UniProt P53044 1-361, looked up)
chain: MFSGFSSFGGGNGFVNMPQTFEEFFRCYPIAMMNDRIRKDDANFGGKIFLPPSALSKLSMLNIRYPMLFKLTANETGRVTHGGVLEFIAEEGRVYLPQWMMETLGIQPGSLLQISSTDVPLGQFVKLEPQSVDFLDISDPKAVLENVLRNFSTLTVDDVIEISYNGKTFKIKILEVKPESSSKSICVIETDLVTDFAPPVGYVEPDYKALKAQQDKEKKNSFGKGQVLDPSVLGQGSMSTRIDYAGIANSSRNKLSKFVGQGQNISGKAPKAEPKQDIKDMKITFDGEPAKLDLPEGQLFFGFPMVLPKEDEESAAGSKSSEQNFQGQGISLRKSNKRKTKSDHDSSKSKAPKSPEVIEID
B2: Ufd1^L55R (purified without Npl4) (natural protein, UniProt P53044 1-361, looked up)
chain: MFSGFSSFGGGNGFVNMPQTFEEFFRCYPIAMMNDRIRKDDANFGGKIFLPPSARSKLSMLNIRYPMLFKLTANETGRVTHGGVLEFIAEEGRVYLPQWMMETLGIQPGSLLQISSTDVPLGQFVKLEPQSVDFLDISDPKAVLENVLRNFSTLTVDDVIEISYNGKTFKIKILEVKPESSSKSICVIETDLVTDFAPPVGYVEPDYKALKAQQDKEKKNSFGKGQVLDPSVLGQGSMSTRIDYAGIANSSRNKLSKFVGQGQNISGKAPKAEPKQDIKDMKITFDGEPAKLDLPEGQLFFGFPMVLPKEDEESAAGSKSSEQNFQGQGISLRKSNKRKTKSDHDSSKSKAPKSPEVIEID
B3: Cdc48 (enzyme, yeast, UniProt P25694 1-835, looked up)
chain: MGEEHKPLLDASGVDPREEDKTATAILRRKKKDNMLLVDDAINDDNSVIAINSNTMDKLELFRGDTVLVKGKKRKDTVLIVLIDDELEDGACRINRVVRNNLRIRLGDLVTIHPCPDIKYATRISVLPIADTIEGITGNLFDVFLKPYFVEAYRPVRKGDHFVVRGGMRQVEFKVVDVEPEEYAVVAQDTIIHWEGEPINREDEENNMNEVGYDDIGGCRKQMAQIREMVELPLRHPQLFKAIGIKPPRGVLMYGPPGTGKTLMARAVANETGAFFFLINGPEVMSKMAGESESNLRKAFEEAEKNAPAIIFIDEIDSIAPKRDKTNGEVERRVVSQLLTLMDGMKARSNVVVIAATNRPNSIDPALRRFGRFDREVDIGIPDATGRLEVLRIHTKNMKLADDVDLEALAAETHGYVGADIASLCSEAAMQQIREKMDLIDLDEDEIDAEVLDSLGVTMDNFRFALGNSNPSALRETVVESVNVTWDDVGGLDEIKEELKETVEYPVLHPDQYTKFGLSPSKGVLFYGPPGTGKTLLAKAVATEVSANFISVKGPELLSMWYGESESNIRDIFDKARAAAPTVVFLDELDSIAKARGGSLGDAGGASDRVVNQLLTEMDGMNAKKNVFVIGATNRPDQIDPAILRPGRLDQLIYVPLPDENARLSILNAQLRKTPLEPGLELTAIAKATQGFSGADLLYIVQRAAKYAIKDSIEAHRQHEAEKEVKVEGEDVEMTDEGAKAEQEPEVDPVPYITKEHFAEAMKTAKRSVSDAELRRYEAYSQQMKASRGQFSNFNFNDAPLGTTATDNANSNNSAPSGAGAAFGSNAEEDDDLYS

How the values were obtained:
[1] = biological target: T1, Npl4 (wild type, purified without Ufd1); experiment: SEC
[2] = biological target: T2, Ufd1/Npl4 heterodimer (wild type); experiment: ATPase activity titration
Ufd1^L55R/Npl4 = biological target: T3, Ufd1^L55R/Npl4; experiment: ATPase activity titration

Binder	binding result [1]	Kd [2]	Kd (Ufd1^L55R/Npl4)
B1	binds	–	–
B2	binds	–	–
B3	–	1000 nM	500 nM
